Assay results reported in the nanobody polyreactivity screen of Harvey et al. (2022).

Assay: yeast display, Sf9 membrane polyspecificity reagent, FACS + sequencing; frameworks hold sequencing errors
In short: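 After 36–48 hours of galactose induction, yeast (Saccharomyces cerevisiae BJ5465) displaying a synthetic nanobody library were stained at 4 °C for 1 hour with 10% biotinylated, detergent-solubilized Sf9 membrane reagent. Streptavidin microbeads enriched the stained cells before FACS sorting into low and high (top ~1%) gates on anti-HA and streptavidin fluorescence. Each clone's polyreactivity label reflects its gate of origin.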

Row | Sequence | polyreactivity (PSR sort gate)
1 | QVQLVESGGGLVQAGGSLRLSCAASGRTFPLYAMGWYRQAPGKERELVAAISWSGGSTYYADSVKGRFTISRDHAKNTVYLQMNSLKPEDTAVYYCNTLGRLTGRYGWSSKYYYWGQGTQVTVSS | high polyreactivity
2 | QVQLVESGGGLVQAGGSLRLSCAASGRTFPPYAMGWYRQAPGKERELVAAIRWSGGDTYYADSVKGRFTISRDNAKNTVYLQMNSLKPEDTAVYYCNAVYYSYSYGYNYWGQGTQVTVSS | high polyreactivity
3 | QVQLVESGGGLVQAGGSLRLSCAASGRTFPQYAMGWYRQAPGKERELVASITSRSGRTYYADSVKGRFTISRDNAKNTVYLQMNSLKPEDTAVYYCNAVSSWWYMNYWGQGTQVTVSS | high polyreactivity
4 | QVQLVESGGGLVQAGGSLRLSCAASGRTFPRNAMGWYRQAPGKERELVAAISYGGGRTYYADSVKGRFTISRDNAKNTVYLQMNSLKPEDTAVYYCATVRRTDYPLGMDYWGQGTQVTVSS | high polyreactivity
5 | QVQLVESGGGLVQAGGSLRLSCAASGRTFPRNAMGWYRQAPGKERELVAAISYGGGRTYYADSVKGRFTISRDYAKNTVYLQMNSLKPEDTAVYYCATVRRTDYPLGMDYWGHGTQVTVSS | high polyreactivity
6 | QVQLVESGGGLVQAGGSLRLSCAASGRTFPRNGMGWYRPAPGQERELVAAIRYSGGSTYYADSVKGRFTISRDNAKNTVYLQMNSLKPEDTAVYYCAAEYRRALGVDYWGQGTQVTVSS | high polyreactivity
7 | QVQLVESGGGLVQAGGSLRLSCAASGRTFPSYTMGWSRQAPGKERELVAAITWTGGSTYYADSVKGRFTISRDNAKNTVYLQMISLKPEDTAVYYCADYDYWGHGTQVTVSS | low polyreactivity
8 | QVQLVESGGGLVQAGGSLRLSCAASGRTFPVNAMGGYRQAPGKERELVAVINWGGTSTYYADSVKGRFTISRDNAKNTVYLQMNSLKPEDTAVYYCAARARYPGVGYNYWGQGTQVTVSS | high polyreactivity
9 | QVQLVESGGGLVQAGGSLRLSCAASGRTFPVYAMGWYRQAPGKERELVAAITRSDDSTYYADSVKGRFTISRDNAKNTVYLQMNSLKPEDTAVYYCARRSRESYEYDYWGQGTQVTVSS | low polyreactivity
10 | QVQLVESGGGLVQAGGSLRLSCAASGRTFPVYDMGWYRQAPGKERELVAGITGSGGRTYYADSVKGRFTISRDNAKNTVYLQMNSLKPEDTAVYYCAADRNLYWDQHEYWGQGTQVTVSS | low polyreactivity
11 | QVQLVESGGGLVQAGGSLRLSCAASGRTFPYNAMGWYRQAPGKERELVAAISWRGGSTYYADSVKGRFTISRDNAKNTVYLQMNSLKPEDTAVYYCNALYPVSYDHRGDYWGQGTQVTVSS | high polyreactivity
12 | QVQLVESGGGLVQAGGSLRLSCAASGRTFPYNAMGWYRQAPGKERELVAAITSSGGSTYYADSVKGRFTISRDNAKNTVYLQMNSLKPEDTAVYYFAKGYYSPNYYYWGQGTQVTVSS | high polyreactivity
13 | QVQLVESGGGLVQAGGSLRLSCAASGRTFPYNTMGWYRQAPGKERELVASISYRGGTYYADSVKGRFTISRDNAKNTVYLQMNSLKPEDTAVYYCNAVYYFSPSYRGYYWGQGTQVTVSS | high polyreactivity
14 | QVQLVESGGGLVQAGGSLRLSCAASGRTFPYNVMGGYRQAPGKERELVASNDGSGGSTYYADSVKGRFTISRDNAKKTVYLQMNSLKPEDTAVYYCAAVYYQSGNYWYSYLGQSPYDYWGQGTQVTVSS | low polyreactivity
15 | QVQLVESGGGLVQAGGSLRLSCAASGRTFPYYAMGWSRQAPGKERQLVAAISSSGGLTYYADSVKGRFTISRDNAKNTVYLQMNSLKPEDTAVYYFNVDAWYPYQGFLVGYYYWGQGTQVTVSS | low polyreactivity
16 | QVQLVESGGGLVQAGGSLRLSCAASGRTFPYYAMGWYRQAPGKERELVAAISKRGGTTYYADSVKGRFTISRDNAKNTVYLQMNSLKPEDTAVYYCAKDSAYGWVAYDYWGQGTQVTVSS | high polyreactivity
17 | QVQLVESGGGLVQAGGSLRLSCAASGRTFPYYAMGWYRQAPGKERELVAAISSSGGSTYYADSVKGRFTISRDNAKNTVYLQMNSLKPEDTEVYYCAAVYQFIKWGDRYEYWGQGTQVTVSS | high polyreactivity
